Assay results from patent publication US7521054.

Target: mesothelin (UniProt Q13421)
Assay: cell-based or functional assay

UniProt Q13421, sequence (Q13421 other isoform, or with tags, fused parts or gaps limits assumed): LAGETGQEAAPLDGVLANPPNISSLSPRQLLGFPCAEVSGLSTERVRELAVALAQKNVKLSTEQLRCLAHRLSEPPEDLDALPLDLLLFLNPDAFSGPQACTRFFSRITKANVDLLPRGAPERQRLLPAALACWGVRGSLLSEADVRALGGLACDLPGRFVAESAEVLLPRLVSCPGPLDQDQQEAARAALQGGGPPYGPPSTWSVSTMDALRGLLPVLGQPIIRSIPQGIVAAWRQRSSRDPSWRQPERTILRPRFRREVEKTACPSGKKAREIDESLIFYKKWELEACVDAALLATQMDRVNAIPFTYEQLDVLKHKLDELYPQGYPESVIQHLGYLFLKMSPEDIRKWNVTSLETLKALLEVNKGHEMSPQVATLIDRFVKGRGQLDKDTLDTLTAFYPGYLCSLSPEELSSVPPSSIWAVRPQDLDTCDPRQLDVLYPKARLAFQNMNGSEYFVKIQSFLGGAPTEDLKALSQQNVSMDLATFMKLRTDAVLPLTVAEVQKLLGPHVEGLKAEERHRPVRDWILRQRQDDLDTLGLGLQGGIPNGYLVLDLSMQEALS

Substance “SS1(dsFv)-PE38 (from UniProt P11439 278-389; P11439 406-638)” has an IC50 (NG/ML), cytotoxic activity on A431-K5 cells of 0.63 ng/mL.
